Assay results taken from publication PMC9437119 (The Journal of Cell Biology, 2022).
Changes are numbered by the printed parent chain. Numbers in names are those of the source. Where “and” joins values, the source holds several entries; their conditions need not be identical. Identical values can stand only once.

B1: myc-tagged human Mid51 (WT) (natural protein, UniProt Q9NQG6 1-463, looked up)
chain: MAGAGERKGKKDDNGIGTAIDFVLSNARLVLGVGGAAMLGIATLAVKRMYDRAISAPTSPTRLSHSGKRSWEEPNWMGSPRLLNRDMKTGLSRSLQTLPTDSSTFDTDTFCPPRPKPVARKGQVDLKKSRLRMSLQEKLLTYYRNRAAIPAGEQARAKQAAVDICAELRSFLRAKLPDMPLRDMYLSGSLYDDLQVVTADHIQLIVPLVLEQNLWSCIPGEDTIMNVPGFFLVRRENPEYFPRGSSYWDRCVVGGYLSPKTVADTFEKVVAGSINWPAIGSLLDYVIRPAPPPEALTLEVQYERDKHLFIDFLPSVTLGDTVLVAKPHRLAQYDNLWRLSLRPAETARLRALDQADSGCRSLCLKILKAICKSTPALGHLTASQLTNVILHLAQEEADWSPDMLADRFLQALRGLISYLEAGVLPSALNPKVNLFAELTPEEIDELGYTLYCSLSEPEVLLQT
notes: Mid51 (MIEF1), human, outer mitochondrial membrane protein; plasmid generated using VectorBuilder; Seen as monomer, dimer, tetramer and HMW species on the IP immunoblot; also called MIEF1; WT Mid51; source: HeLa cells, transfected for 24 h, in lysate
B2: myc-tagged human Mid51(Y240N) (natural protein, UniProt Q9NQG6 1-463, looked up)
chain: B1 chain with Y240N
notes: Mid51 (MIEF1), human, variant Y240N linked to dominant optic atrophy; plasmid generated using VectorBuilder; source: HeLa cells, transfected for 24 h, in lysate

Target: the molecule itself
Assay: SDS-resistant oligomers on SDS-PAGE immunoblot of the immunoprecipitate; anti-myc immunoprecipitate of the Mid51/Fis1 complex from HeLa lysate heated 20 min at 55°C, 4-20% Tris-Glycine SDS-PAGE; SDS-resistant complexes detected with anti-myc (Mid51 species) or anti-Flag (Fis1 species); species normalized to monomer

| Protein | stoichiometry N |
| --- | --- |
| B1 | 2 and 4 |
| B2 | 2 and 4 |
